# US20230203177A1 (Bristol-Myers Squibb, published 2023)
# Changes are numbered by the printed parent chain. Names may count otherwise.
# B1: M26 (HC-R67E / LC-K45Q) (antibody, human IgG1, kappa, V domains shown)
# VH: QVQLVQSGAEVKKPGSSVKVSCKASGYAFTSYWMHWVRQAPGQGLEWMGQINPTTGRSQYNEKFKTEVTITADKSTSTAYMELSSLRSEDTAVYYCARWGLQPFAYWGQGTLVTVSS
# VL: DIQMTQSPSFLSASVGDRVTITCKASQDVSTAVAWYQQKPGKAPQLLIYSASYRYTGVPSRFSGSGSGTDFTLTISSLQPEDFATYYCQQHYSTPWTFGGGTKVEIKR
# notes: IgG1-P238K; also called HC10/LC2
# B2: M28 (HC-R57E,K74Q / LC-K45Q) (antibody, human IgG1, kappa, V domains shown)
# VH: B1 VH with R57E, E67R, K74Q
# VL: B1 VL
# notes: IgG1-P238K; also called HC12/LC2
# B3: M46 (HC-K74T / LC-K45E) (antibody, human IgG1, kappa, V domains shown)
# VH: B1 VH with E67R, K74T
# VL: B1 VL with Q45E
# notes: IgG1-P238K; also called HC14/LC3
# B4: M56 (HC-R38Q,K63Q,R67Q / LC-K45Q,R54Q,R61Q) (antibody, human IgG1, kappa, V domains shown)
# VH: B1 VH with R38Q, K63Q, E67Q
# VL: B1 VL with R54Q, R61Q
# notes: IgG1-P238K; also called HC8/LC4
# B5: M52 (HC-K12E / LC-K45Q,R54Q,R61Q) (antibody, human IgG1, kappa)
# heavy: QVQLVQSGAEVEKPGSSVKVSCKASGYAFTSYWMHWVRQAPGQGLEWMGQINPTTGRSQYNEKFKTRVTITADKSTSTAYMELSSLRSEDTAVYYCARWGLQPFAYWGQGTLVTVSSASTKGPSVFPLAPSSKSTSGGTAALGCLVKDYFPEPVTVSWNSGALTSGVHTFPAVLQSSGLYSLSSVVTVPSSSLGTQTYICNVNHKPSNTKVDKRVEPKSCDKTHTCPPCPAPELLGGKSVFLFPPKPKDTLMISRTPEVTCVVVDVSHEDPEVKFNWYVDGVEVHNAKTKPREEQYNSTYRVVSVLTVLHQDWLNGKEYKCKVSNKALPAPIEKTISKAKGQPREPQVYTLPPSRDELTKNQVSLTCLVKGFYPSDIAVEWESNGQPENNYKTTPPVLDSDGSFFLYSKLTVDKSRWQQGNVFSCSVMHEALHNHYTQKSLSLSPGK
# light: DIQMTQSPSFLSASVGDRVTITCKASQDVSTAVAWYQQKPGKAPQLLIYSASYQYTGVPSQFSGSGSGTDFTLTISSLQPEDFATYYCQQHYSTPWTFGGGTKVEIKRTVAAPSVFIFPPSDEQLKSGTASVVCLLNNFYPREAKVQWKVDNALQSGNSQESVTEQDSKDSTYSLSSTLTLSKADYEKHKVYACEVTHQGLSSPVTKSFNRGEC
# notes: IgG1-P238K; also called HC4/LC4
# B6: M41 (HC-K63Q,R67E / LC-K45E) (antibody, human IgG1, kappa, V domains shown)
# VH: B1 VH with K63Q
# VL: B1 VL with Q45E
# notes: IgG1-P238K; also called HC9/LC3
# B7: M32 (HC-K63Q / LC-K45Q) (antibody, human IgG1, kappa, V domains shown)
# VH: B1 VH with K63Q, E67R
# VL: B1 VL
# notes: IgG1-P238K; also called HC16/LC2
# B8: M58 (HC-R67E / LC-K45Q,R54Q,R61Q) (antibody, human IgG1, kappa, V domains shown)
# VH: B1 VH
# VL: B1 VL with R54Q, R61Q
# notes: IgG1-P238K; also called HC10/LC4
# B9: M55 (HC-K23E / LC-K45Q,R54Q,R61Q) (antibody, human IgG1, kappa)
# heavy: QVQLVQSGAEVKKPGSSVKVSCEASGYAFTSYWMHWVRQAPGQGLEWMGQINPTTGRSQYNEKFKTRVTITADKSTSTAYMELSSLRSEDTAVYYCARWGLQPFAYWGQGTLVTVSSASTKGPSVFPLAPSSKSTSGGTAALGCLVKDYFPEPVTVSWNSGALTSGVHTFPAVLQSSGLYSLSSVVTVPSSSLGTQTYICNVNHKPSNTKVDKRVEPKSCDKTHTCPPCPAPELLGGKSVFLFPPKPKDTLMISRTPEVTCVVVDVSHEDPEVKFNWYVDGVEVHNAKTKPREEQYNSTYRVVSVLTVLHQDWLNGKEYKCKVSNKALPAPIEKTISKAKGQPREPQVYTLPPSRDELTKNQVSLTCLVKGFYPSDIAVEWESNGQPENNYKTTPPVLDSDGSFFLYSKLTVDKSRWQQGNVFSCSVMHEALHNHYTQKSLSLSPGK
# light: B5 light
# notes: IgG1-P238K; also called HC7/LC4
# B10: M66 (HC-K12Q,K13Q / LC-R61Q) (antibody, human IgG1, kappa)
# heavy: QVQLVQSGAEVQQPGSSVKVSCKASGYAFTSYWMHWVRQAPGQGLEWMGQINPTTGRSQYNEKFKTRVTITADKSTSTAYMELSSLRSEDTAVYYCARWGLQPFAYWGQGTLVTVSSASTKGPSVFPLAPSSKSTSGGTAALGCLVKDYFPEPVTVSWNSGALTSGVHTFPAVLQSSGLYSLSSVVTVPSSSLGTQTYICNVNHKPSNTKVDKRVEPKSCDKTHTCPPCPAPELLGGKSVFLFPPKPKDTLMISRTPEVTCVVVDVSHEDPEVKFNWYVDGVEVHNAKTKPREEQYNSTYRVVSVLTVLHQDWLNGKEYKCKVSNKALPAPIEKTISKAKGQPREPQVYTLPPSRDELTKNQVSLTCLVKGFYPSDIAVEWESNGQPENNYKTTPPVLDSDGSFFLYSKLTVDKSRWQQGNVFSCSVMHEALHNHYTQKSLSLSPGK
# light: B5 light with Q45K, Q54R
# notes: IgG1-P238K; also called HC2/LC5
# B11: M65 (HC-wt / LC-R61Q) (antibody, human IgG1, kappa)
# heavy: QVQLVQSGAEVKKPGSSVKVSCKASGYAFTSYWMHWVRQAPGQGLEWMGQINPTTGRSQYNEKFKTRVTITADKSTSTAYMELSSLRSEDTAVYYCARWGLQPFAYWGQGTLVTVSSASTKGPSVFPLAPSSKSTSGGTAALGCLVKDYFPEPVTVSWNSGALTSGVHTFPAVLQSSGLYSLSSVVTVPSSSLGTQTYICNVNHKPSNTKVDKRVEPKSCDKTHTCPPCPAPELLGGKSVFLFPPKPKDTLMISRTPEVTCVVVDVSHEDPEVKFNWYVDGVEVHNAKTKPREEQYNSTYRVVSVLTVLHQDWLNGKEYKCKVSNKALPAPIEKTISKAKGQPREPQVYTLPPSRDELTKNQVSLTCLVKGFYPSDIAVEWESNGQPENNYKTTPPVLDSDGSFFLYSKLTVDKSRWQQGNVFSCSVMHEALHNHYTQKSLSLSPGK
# light: B5 light with Q45K, Q54R
# notes: IgG1-P238K; also called HC1/LC5
# B12: M34 (HC-K12Q,K13Q / LC-K45E) (antibody, human IgG1, kappa)
# heavy: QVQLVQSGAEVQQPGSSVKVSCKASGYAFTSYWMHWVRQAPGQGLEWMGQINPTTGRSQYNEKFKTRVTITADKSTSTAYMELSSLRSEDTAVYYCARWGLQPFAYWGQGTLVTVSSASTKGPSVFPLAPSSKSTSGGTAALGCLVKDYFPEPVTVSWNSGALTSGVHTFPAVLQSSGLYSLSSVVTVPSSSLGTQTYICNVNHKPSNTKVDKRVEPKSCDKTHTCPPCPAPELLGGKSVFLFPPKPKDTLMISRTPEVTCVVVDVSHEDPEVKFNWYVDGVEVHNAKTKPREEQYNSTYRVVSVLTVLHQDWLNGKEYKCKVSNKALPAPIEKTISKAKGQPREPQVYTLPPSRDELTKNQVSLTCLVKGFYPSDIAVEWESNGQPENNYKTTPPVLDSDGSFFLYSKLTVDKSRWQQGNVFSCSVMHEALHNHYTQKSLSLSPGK
# light: B5 light with Q45E, Q54R, Q61R
# notes: IgG1-P238K; also called HC2/LC3
# B13: M39 (HC-K23E / LC-K45E) (antibody, human IgG1, kappa)
# heavy: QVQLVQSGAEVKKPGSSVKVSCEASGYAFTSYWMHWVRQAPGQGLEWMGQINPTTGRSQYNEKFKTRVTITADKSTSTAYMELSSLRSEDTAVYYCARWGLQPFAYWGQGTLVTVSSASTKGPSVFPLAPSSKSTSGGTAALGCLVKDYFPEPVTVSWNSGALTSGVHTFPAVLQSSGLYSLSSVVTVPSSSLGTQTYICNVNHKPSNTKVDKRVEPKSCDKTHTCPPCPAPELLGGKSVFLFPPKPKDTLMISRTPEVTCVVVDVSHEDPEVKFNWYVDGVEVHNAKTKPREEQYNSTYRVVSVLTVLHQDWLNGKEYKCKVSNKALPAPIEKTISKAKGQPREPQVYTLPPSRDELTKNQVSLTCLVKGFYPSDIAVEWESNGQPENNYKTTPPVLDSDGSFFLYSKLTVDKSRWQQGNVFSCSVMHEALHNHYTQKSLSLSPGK
# light: B5 light with Q45E, Q54R, Q61R
# notes: IgG1-P238K; also called HC7/LC3
# B14: M30 (HC-K74T / LC-K45Q) (antibody, human IgG1, kappa, V domains shown)
# VH: B1 VH with E67R, K74T
# VL: B1 VL
# notes: IgG1-P238K; also called HC14/LC2
# B15: M43 (HC-R57E / LC-K45E) (antibody, human IgG1, kappa, V domains shown)
# VH: B1 VH with R57E, E67R
# VL: B1 VL with Q45E
# notes: IgG1-P238K; also called HC11/LC3
# B16: M59 (HC-R57E / LC-K45Q,R54Q,R61Q) (antibody, human IgG1, kappa, V domains shown)
# VH: B1 VH with R57E, E67R
# VL: B1 VL with R54Q, R61Q
# notes: IgG1-P238K; also called HC11/LC4
# B17: M51 (HC-K12Q,K13Q,K23Q / LC-K45Q,R54Q,R61Q) (antibody, human IgG1, kappa, V domains shown)
# VH: B1 VH with K12Q, K13Q, K23Q, E67R
# VL: B1 VL with R54Q, R61Q
# notes: IgG1-P238K; also called HC3/LC4
# B18: M42 (HC-R67E / LC-K45E) (antibody, human IgG1, kappa, V domains shown)
# VH: B1 VH
# VL: B1 VL with Q45E
# notes: IgG1-P238K; also called HC10/LC3
# B19: M27 (HC-R57E / LC-K45Q) (antibody, human IgG1, kappa, V domains shown)
# VH: B1 VH with R57E, E67R
# VL: B1 VL
# notes: IgG1-P238K; also called HC11/LC2
# B20: M48 (HC-K63Q / LC-K45E) (antibody, human IgG1, kappa, V domains shown)
# VH: B1 VH with K63Q, E67R
# VL: B1 VL with Q45E
# notes: IgG1-P238K; also called HC16/LC3
# B21: M45 (HC-E46K,E62K / LC-K45E) (antibody, human IgG1, kappa, V domains shown)
# VH: B1 VH with E46K, E62K, E67R
# VL: B1 VL with Q45E
# notes: IgG1-P238K; also called HC13/LC3
# B22: M50 (HC-K12Q,K13Q / LC-K45Q,R54Q,R61Q) (antibody, human IgG1, kappa)
# heavy: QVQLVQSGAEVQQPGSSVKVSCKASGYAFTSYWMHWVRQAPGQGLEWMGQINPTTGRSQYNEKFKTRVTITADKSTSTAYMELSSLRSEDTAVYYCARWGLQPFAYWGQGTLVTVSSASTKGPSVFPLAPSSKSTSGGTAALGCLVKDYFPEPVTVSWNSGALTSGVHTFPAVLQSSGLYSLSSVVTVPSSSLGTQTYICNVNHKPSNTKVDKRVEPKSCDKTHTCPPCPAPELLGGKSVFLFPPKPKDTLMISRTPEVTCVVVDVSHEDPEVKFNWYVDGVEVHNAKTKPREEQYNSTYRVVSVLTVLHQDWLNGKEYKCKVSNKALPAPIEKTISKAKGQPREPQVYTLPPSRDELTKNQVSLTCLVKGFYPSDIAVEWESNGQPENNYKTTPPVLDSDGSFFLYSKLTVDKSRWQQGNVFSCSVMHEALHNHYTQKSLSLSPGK
# light: B5 light
# notes: IgG1-P238K; also called HC2/LC4
# B23: M67 (HC-K12Q,K13Q,K23Q / LC-R61Q) (antibody, human IgG1, kappa, V domains shown)
# VH: B1 VH with K12Q, K13Q, K23Q, E67R
# VL: B1 VL with Q45K, R61Q
# notes: IgG1-P238K; also called HC3/LC5
# B24: M31 (HC-R67Q / LC-K45Q) (antibody, human IgG1, kappa, V domains shown)
# VH: B1 VH with E67Q
# VL: B1 VL
# notes: IgG1-P238K; also called HC15/LC2
# B25: M44 (HC-R57E,K74Q / LC-K45E) (antibody, human IgG1, kappa, V domains shown)
# VH: B1 VH with R57E, E67R, K74Q
# VL: B1 VL with Q45E
# notes: IgG1-P238K; also called HC12/LC3
# B26: M60 (HC-R57E,K74Q / LC-K45Q,R54Q,R61Q) (antibody, human IgG1, kappa, V domains shown)
# VH: B1 VH with R57E, E67R, K74Q
# VL: B1 VL with R54Q, R61Q
# notes: IgG1-P238K; also called HC12/LC4
# B27: M29 (HC-E46K,E62K / LC-K45Q) (antibody, human IgG1, kappa, V domains shown)
# VH: B1 VH with E46K, E62K, E67R
# VL: B1 VL
# notes: IgG1-P238K; also called HC13/LC2
# B28: M64 (HC-K63Q / LC-K45Q,R54Q,R61Q) (antibody, human IgG1, kappa, V domains shown)
# VH: B1 VH with K63Q, E67R
# VL: B1 VL with R54Q, R61Q
# notes: IgG1-P238K; also called HC16/LC4
# B29: M57 (HC-K63Q,R67E / LC-K45Q,R54Q,R61Q) (antibody, human IgG1, kappa, V domains shown)
# VH: B1 VH with K63Q
# VL: B1 VL with R54Q, R61Q
# notes: IgG1-P238K; also called HC9/LC4
# B30: M40 (HC-R38Q,K63Q,R67Q / LC-K45E) (antibody, human IgG1, kappa, V domains shown)
# VH: B1 VH with R38Q, K63Q, E67Q
# VL: B1 VL with Q45E
# notes: IgG1-P238K; also called HC8/LC3
# B31: M61 (HC-E46K,E62K / LC-K45Q,R54Q,R61Q) (antibody, human IgG1, kappa, V domains shown)
# VH: B1 VH with E46K, E62K, E67R
# VL: B1 VL with R54Q, R61Q
# notes: IgG1-P238K; also called HC13/LC4
# B32: M35 (HC-K12Q,K13Q,K23Q / LC-K45E) (antibody, human IgG1, kappa, V domains shown)
# VH: B1 VH with K12Q, K13Q, K23Q, E67R
# VL: B1 VL with Q45E
# notes: IgG1-P238K; also called HC3/LC3
# Target: T1, soluble human CD40 extracellular domain (human, UniProt P25942 21-193)
# T1 construct: Produced in house; also called hCD40; soluble hCD40 extracellular domain
# Assay: SPR, Ab captured from supernatant on protein A, hCD40 ECD analyte
# Method: The titer data (Table 21) were used to normalize the antibody concentration in each supernatant to 3 μg/ml, and these antibodies were captured out of the supernatants on a protein A CMS Series S sensor chip (GE Healthcare), and tested for binding to two concentrations (5 nM and 50 nM) of soluble hCD40 extracellular domain.
# CD40 binding SPR of antibody supernatants: Surface plasmon resonance (SPR) studies were conducted on a BIAcore™ T200 instrument (GE Healthcare, Chicago Ill.). A Series S Protein A sensor chip (GE Healthcare, Chicago Ill.) was equilibrated with SPR running buffer of 10 mM NaPO₄, 130 mM NaCl, 0.05% tween 20, (PBS-T) pH 7.2 at 25° C. The 96 antibody supernatants were normalized to a concentration of 3 μg/ml by diluting with PBS-T using a PerkinElmer JANUS® G3 system (PerkinElmer, Akron, Ohio). After priming the system, the 3 μg/ml antibody samples were captured on the protein A surface for 30 s at 10 μl/min Binding of 50 nM and 500 nM human CD40 extracellular domain (produced in house) was evaluated using association time of 180 s at 30 μl/min, followed by a dissociation time of 180 s at 30 μl/min Regeneration between cycles was accomplished using two 15 s injections of 10 mM glycine pH 1.5. […] Data were analyzed using BIAcore™ T200 evaluation software by fitting to a 1:1 Langmuir model.
# T1 sequence (P25942 21-193 limits assumed): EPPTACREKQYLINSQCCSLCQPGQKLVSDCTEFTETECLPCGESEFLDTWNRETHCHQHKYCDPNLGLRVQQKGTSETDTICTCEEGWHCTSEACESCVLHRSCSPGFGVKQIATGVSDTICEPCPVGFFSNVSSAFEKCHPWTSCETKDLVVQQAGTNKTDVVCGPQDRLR
row,Binder,Kd
1,B1,3 nM
2,B2,15.7 nM
3,B3,3.9 nM
4,B4,2.5 nM
5,B5,2.6 nM
6,B6,3.3 nM
7,B7,3.9 nM
8,B8,2.1 nM
9,B9,3.5 nM
10,B10,3.6 nM
11,B11,4.3 nM
12,B12,3.3 nM
13,B13,4.6 nM
14,B14,4 nM
15,B15,11.7 nM
16,B16,9.5 nM

row,Binder,Kd
1,B17,2.9 nM
2,B18,3 nM
3,B19,10.4 nM
4,B20,3.8 nM
5,B21,8.8 nM
6,B22,2.5 nM
7,B23,3.6 nM
8,B24,3.1 nM
9,B25,17.2 nM
10,B26,14.7 nM
11,B27,8.8 nM
12,B28,3.3 nM
13,B29,2.5 nM
14,B30,3.1 nM
15,B31,7.5 nM
16,B32,3.7 nM
